Residue numbers refer to the chain shown, from its start.
Biological target: the molecule itself
Assay: SEC; gel filtration of a single MBP fusion protein (self-association); HiLoad 200, 25 mM Bis-Tris pH 8.0, 150 mM NaCl

B1: MBP-PIF4^bHLH (bHLH DNA-binding domain of PIF4 fused to N-terminal maltose binding protein) (domain or fragment, Arabidopsis thaliana, UniProt Q8W2F3 248-317, looked up)
chain: QRSGSNRRSRAAEVHNLSERRRRDRINERMKALQELIPHCSKTDKASILDEAIDYLKSLQLQLQVMWMGS
notes: codon-optimised for E. coli; also called PIF4 bHLH domain; PIF4^bHLH WT; source: E. coli ArcticExpress, purified (Ni-NTA, size-exclusion chromatography); not shown: MBP, N-terminal, kept
For B1, the “stoichiometry N” value was 4.

B2: MBP-PIF4^(bHLH (Mu3)) (PIF4 bHLH domain mutated in Interface 3 and Interface 4) (domain or fragment, Arabidopsis thaliana, UniProt Q8W2F3 248-317, looked up)
chain: B1 chain with E28A, R29A, K31A, Q34A, E35A, Q64A, W67A
notes: source: E. coli ArcticExpress, purified (Ni-NTA, size-exclusion chromatography); not shown: MBP, N-terminal, kept
For B2, the “stoichiometry N” value was 2.

Reference: article PMC9477738, “PIF4 enhances DNA binding of CDF2 to co-regulate target gene expression and promote Arabidopsis hypocotyl cell elongation” (Nature Plants, 2022)
